Data reported in article PMC11752098.

B1: wild-type GABRA2 (α2 subunit of the γ-aminobutyric acid A receptor), FLAG-tagged [human] / GABRB3 (β3 subunit of the GABA-A receptor) [human (endogenous in 293T)] (parent)
chain 1: NIQEDEAKNNITIFTRILDRLLDGYDNRLRPGLGDSITEVFTNIYVTSFGPVSDTDMEYTIDVFFRQKWKDERLKFKGPMNILRLNNLMASKIWTPDTFFHNGKKSVAHNMTMPNKLLRIQDDGTLLYTMRLTVQAECPMHLEDFPMDAHSCPLKFGSYAYTTSEVTYIWTYNASDSVQVAPDGSRLNQYDLLGQSIGKETIKSSTGEYTVMTAHFHLKRKIGYFVIQTYLPCIMTVILSQVSFWLNRESVPARTVFGVTTVLTMTTLSISARNSLPKVAYATAMDWFIAVCYAFVFSALIEFATVNYFTKRGWAWDGKSVVNDKKKEKASVMIQNNAYAVAVANYAPNLSKDPVLSTISKSATTPEPNKKPENKPAEAKKTFNSVSKIDRMSRIVFPVLFGTFNLVYWATYLNREPVLGVSP
chain 2: QSVNDPGNMSFVKETVDKLLKGYDIRLRPDFGGPPVCVGMNIDIASIDMVSEVNMDYTLTMYFQQYWRDKRLAYSGIPLNLTLDNRVADQLWVPDTYFLNDKKSFVHGVTVKNRMIRLHPDGTVLYGLRITTTAACMMDLRRYPLDEQNCTLEIESYGYTTDDIEFYWRGGDKAVTGVERIELPQFSIVEHRLVSRNVVFATGAYPRLSLSFRLKRNIGYFILQTYMPSILITILSWVSFWINYDASAARVALGITTVLTMTTINTHLRETLPKIPYVKAIDMYLMGCFVFVFLALLEYAFVNYIFFGRGPQRQKKLAEKTAKAKNDRSKSESNRVDAHGNILLTSLEVHNEMNEVSGGIGDTRNSAISFDNSGIQYRKQSMPREGHGRFLGDRSLPHKKTHLRRRSSQLKIKIPDLTDVNAIDRWSRIVFPFTFSLFNLVYWLYYVN
B2: wild-type GABRA2 (α2 subunit of the γ-aminobutyric acid A receptor), FLAG-tagged [human] / GABRG2 (γ2 subunit of the GABA-A receptor) [human (endogenous in 293T)] (parent)
chain 1: B1 chain 1
chain 2: QKSDDDYEDYASNKTWVLTPKVPEGDVTVILNNLLEGYDNKLRPDIGVKPTLIHTDMYVNSIGPVNAINMEYTIDIFFAQTWYDRRLKFNSTIKVLRLNSNMVGKIWIPDTFFRNSKKADAHWITTPNRMLRIWNDGRVLYTLRLTIDAECQLQLHNFPMDEHSCPLEFSSYGYPREEIVYQWKRSSVEVGDTRSWRLYQFSFVGLRNTTEVVKTTSGDYVVMSVYFDLSRRMGYFTIQTYIPCTLIVVLSWVSFWINKDAVPARTSLGITTVLTMTTLSTIARKSLPKVSYVTAMDLFVSVCFIFVFSALVEYGTLHYFVSNRKPSKDKDKKKKNPLLRMFSFKAPTIDIRPRSATIQMNNATHLQERDEEYGYECLDGKDCASFFCCFEDCRTGAWRHGRIHIRIAKMDSYARIFFPTAFCLFNLVYWVSYLYL

Variants of: B1
Assay: co-immunoprecipitation (anti-FLAG beads) with Western blot quantification
Conditions: with GABRB3 (β3 subunit of the GABA-A receptor) [human (endogenous in 293T)]; 293T cells transfected with FLAG-tagged GABRA2-WT or GABRA2-MUT; parent: 1; read off a plot

ratio to parent | Variant
0.87 | chain 1 NIQEDEAKNNITIFTRILDRLLDGYDNRLRPGLGDSITEVFTNIYVTSFGPVSDTDMEYTIDVFFRQKWKDERLKFKGPMNILRLNNLMASKIWTPDTFFHNGKKSVAHNMTMPNKLLRIQDDGTLLYTMRLTVQAECPMHLEDFPMDAHSCPLKFGSYAYTTSEVTYIWTYNASDSVQVAPDGSRLNQYDLLGQSIGKETIKSSTGEYTVMTAHFHLKRKIGYFVIQTYLPCIMTVILSQVSFWLNRESVPARTVFGVTTVLTMTTLSISARNSLPKVVYATAMDWFIAVCYAFVFSALIEFATVNYFTKRGWAWDGKSVVNDKKKEKASVMIQNNAYAVAVANYAPNLSKDPVLSTISKSATTPEPNKKPENKPAEAKKTFNSVSKIDRMSRIVFPVLFGTFNLVYWATYLNREPVLGVSP [chain 1 A280V]

Variants of: B2
Assay: as above
Conditions: with GABRG2 (γ2 subunit of the GABA-A receptor) [human (endogenous in 293T)]; 293T cells transfected with FLAG-tagged GABRA2-WT or GABRA2-MUT; parent: 1; read off a plot

ratio to parent | Variant
0.88 | chain 1 NIQEDEAKNNITIFTRILDRLLDGYDNRLRPGLGDSITEVFTNIYVTSFGPVSDTDMEYTIDVFFRQKWKDERLKFKGPMNILRLNNLMASKIWTPDTFFHNGKKSVAHNMTMPNKLLRIQDDGTLLYTMRLTVQAECPMHLEDFPMDAHSCPLKFGSYAYTTSEVTYIWTYNASDSVQVAPDGSRLNQYDLLGQSIGKETIKSSTGEYTVMTAHFHLKRKIGYFVIQTYLPCIMTVILSQVSFWLNRESVPARTVFGVTTVLTMTTLSISARNSLPKVVYATAMDWFIAVCYAFVFSALIEFATVNYFTKRGWAWDGKSVVNDKKKEKASVMIQNNAYAVAVANYAPNLSKDPVLSTISKSATTPEPNKKPENKPAEAKKTFNSVSKIDRMSRIVFPVLFGTFNLVYWATYLNREPVLGVSP [chain 1 A280V]
